Paper PMC4585561
pKd: −log10 of the molar value.

Target: VSD from KvAP (residues -12 to 136)
Assay: ITC; 350 uM VSTx1 titrated into 36 uM VSD in the cell, 25 °C, 10 mM PIPES-NaOH pH 6.5, 4 mM DM; single-site model

For “VSTx1 (from UniProt P60980 30-63) (peptide)”, the pKd was 5.82, the dH was -4.5 kcal/mol and the stoichiometry N was 0.97.
